Measured values published in patent publication US10370642B2, “Hematopoietic progenitor cell populations having affinity for E-selectin / L-selectin” (priority 2000, dated 2019).

Key:
E-selectin = target: T1, E-selectin (Homo sapiens, UniProt P16581); assay: Blot rolling assay with CHO-E cells; type: cell-based; settings: immunoprecipitated CD44 on Western blot; 3.8 dynes/cm^2
T1 construct: stably transfected with full-length cDNA encoding human E-selectin; expressed in transfected cells
T1 sequence (P16581 22-610): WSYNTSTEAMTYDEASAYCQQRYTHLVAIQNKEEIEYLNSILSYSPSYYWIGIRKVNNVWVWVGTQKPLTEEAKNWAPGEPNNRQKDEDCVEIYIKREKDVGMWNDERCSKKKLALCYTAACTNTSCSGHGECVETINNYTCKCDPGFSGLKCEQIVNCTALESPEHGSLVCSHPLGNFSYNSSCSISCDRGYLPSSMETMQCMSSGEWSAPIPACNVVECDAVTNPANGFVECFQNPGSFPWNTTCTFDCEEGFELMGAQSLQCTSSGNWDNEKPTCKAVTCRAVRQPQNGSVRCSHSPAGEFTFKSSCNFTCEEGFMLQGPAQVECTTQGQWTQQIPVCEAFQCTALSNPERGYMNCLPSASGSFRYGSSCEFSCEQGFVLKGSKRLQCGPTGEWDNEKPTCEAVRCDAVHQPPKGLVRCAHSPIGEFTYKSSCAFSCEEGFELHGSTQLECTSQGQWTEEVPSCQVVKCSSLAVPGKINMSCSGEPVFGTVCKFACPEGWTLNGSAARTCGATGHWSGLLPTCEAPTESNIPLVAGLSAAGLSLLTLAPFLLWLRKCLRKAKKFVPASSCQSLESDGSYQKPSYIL
Description: The blot rolling assay was performed as previously described (Dimitroff et al., 2000). Briefly, CHO-E, CHO—P or CHO-Mock transfectants were isolated as described above, washed twice in HBSS and suspended at 10^7/ml in HBSS/10 mM HEPES/2mMCaCl2 (H/H/Ca++)/10% glycerol. Western blots of HPC membrane preparations stained with HECA-452 were rendered transparent by incubating them in H/H/Ca++/10% glycerol. The blots were then placed in the parallel-plate flow chamber, and CHO transfectants (2×10^6/ml) were perfused into the chamber. After allowing the cells to come in contact with the blotting membrane, the flow rate was adjusted to exert a shear stress of 3.8 dynes/cm^2. The viscosity of 10% glycerol adhesion assay medium was considered in the calculation of shear stress values. The number of cells rolling on and between each immunostained banding region was quantified under 100× magnification within each field of view on the video monitor using molecular weight markers (Kaleidoscope Molecular Weight Markers, Bio-Rad Lab.; See Blue® from Novex, Inc.) as guides to help align and visualize the apparent molecular weights of the proteins of interest. A minimum of 3 experiments was performed and results were expressed as the mean±SD of cell rolling/field at 100× magnification.

L-selectin [1] = assay: Stamper-Woodruff assay, lymphocyte adherence to immunoprecipitated CD44 and PSGL-1; type: cell-based, rat; settings: equimolar amounts (0.75 μg CD44, 1 μg PSGL-1); 80 rpm
Description: (§1) These protein spots were then fixed in 3% glutaraldehyde, unreactive aldehyde groups were blocked in 0.2M lysine and slides were kept in RPMI-1640 without NaBicarbonate/2% FBS until ready for testing. Lymphocytes (10^7/ml RPMI-1640 without NaBicarbonate/5% FBS) were overlayed onto these fixed immunoprecipitates and incubated on an orbital shaker at 80 rpm for 30 min. at 4° C. The number of adherent lymphocytes was quantified by light microscopy using an ocular grid under 100× magnification (a minimum of 5 fields/slide, 2 slides/experiment, and 3 separate experiments). Data were presented as the mean number of bound lymphocytes±standard deviation. KG1a CD34 and L-selectin control immunoprecipitates were also tested in this manner. To verify the dependence for sialic acid, glutaraldehyde-fixed spots were treated with Vibrio cholerae neuraminidase (0.1 U/ml RPMI-1640 without NaBicarbonate/2% FBS for lhr at 37° C.).
(§2) Immunoaffinity purified material (0.75-3 μg/spot) was spotted onto glass slides for analyses in the Stamper-Woodruff assay (See below for assay description). For autoradiographic analysis of immunoprecipitated [^35S]-methionine-radiolabeled CD44 and PSGL-1, immunoprecipitates were spotted onto glass slides, allowed to dry and exposed Kodak BioMax-MR film for 12 h at −80° C. Densitometric analysis (optical density) of the autoradiograms was performed with a Hewlett-Packard Scanj et 5200C scanner and NIH Image processing and analysis program.

L-selectin [2] = target: T2, L-selectin (Rattus norvegicus, UniProt P30836); assay: as above; type: cell-based; settings: 80 rpm
T2 construct: L-selectin naturally expressed on leukocytes; endogenous in cells; host or cells: lymphocytes (rat thoracic duct lymphocytes; human PBMC also prepared)
T2 sequence (P30836 39-372): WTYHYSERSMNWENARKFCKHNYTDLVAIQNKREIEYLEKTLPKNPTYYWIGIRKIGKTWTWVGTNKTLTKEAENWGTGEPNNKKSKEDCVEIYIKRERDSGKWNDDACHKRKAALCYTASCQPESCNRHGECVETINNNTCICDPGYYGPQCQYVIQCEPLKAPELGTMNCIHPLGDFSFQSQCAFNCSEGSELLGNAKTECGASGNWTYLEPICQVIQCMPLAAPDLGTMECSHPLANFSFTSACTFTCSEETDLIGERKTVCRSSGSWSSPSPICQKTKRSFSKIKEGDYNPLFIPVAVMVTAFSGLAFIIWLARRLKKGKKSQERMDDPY
Description: as §1, §2

L-selectin [3] = assay: Blot rolling assay with L-selectin-expressing lymphocytes; type: cell-based; settings: 2.3 dynes/cm^2
Description: L-selectin-expressing lymphocytes were isolated as previously described (Oxley, S. M. & Sackstein, R. (1994). Blood. 84:3299-3306; Sackstein, R., Fu, L. and Allen, K. L. (1997) Blood. 89:2773-2781), washed twice in HBSS and suspended at 2×10^7/ml in HBSS/10 mM HEPES/2mMCaCl2 (H/H/Ca^++)/10% glycerol. Cell lysate material is separated by SDS-PAGE and transferred to PVDF under standard blotting conditions. Western blots of KG1a membrane preparations stained with HECA-452, A3D8 or Hermes-1 were rendered transparent by incubating them in H/H/Ca^++/10% glycerol. To study L-selectin-mediated adhesive interactions, the blots were placed in the parallel plate flow chamber and lymphocytes were perfused into the chamber at a shear force of 2.3 dynes/cm^2 and cellular adhesive interactions are observed by video microscopy and analyzed in real time.
The number of lymphocytes rolling on and between each immunostained banding region was quantified from five independent fields under 200× magnification on the video monitor using molecular weight markers as guides to help align and visualize the proteins of interest. A minimum of 3 experiments were performed, and results were expressed as the mean of cell rolling/field.

L-selectin [4] = assay: Stamper-Woodruff assay, lymphocyte adherence to immunoprecipitated CD44 and PSGL-1; type: cell-based, rat; settings: equimolar amounts; from 40 to 100 rpm

With “KG1a CD44: glycoform of CD44 with HECA-452 reactive sialylated, fucosylated N-glycans, immunoprecipitated from KG1a cells with Hermes-1” the “E-selectin ligand activity (CHO-E cell rolling) in blot rolling assay” value (E-selectin) was “possessed E-selectin ligand activity”, the “fold greater lymphocyte binding compared with PSGL-1” value (L-selectin [1]) was “up to 10 fold” and the “Mean Number of Bound Lymphocytes” value (L-selectin [2]; 0.75 μg/spot (PSGL-1 1 μg/spot), 4° C., 100× mag.) was 357.8. The “fold higher mean number of lymphocytes bound to CD44 than to PSGL-1” value (L-selectin [2]; p<0.001) was 3 fold, the “L-selectin ligand activity (lymphocyte tethering and rolling) in blot rolling assay” value (L-selectin [3]) was “supported L-selectin ligand interactions” and the “fold higher lymphocyte adherence compared with PSGL-1” value (L-selectin [4]) was 5- to 10 fold.
